Test results reported in paper PMC12126490, “The HP1 box of KAP1 organizes HP1α for silencing of endogenous retroviral elements in embryonic stem cells” (Nature Communications, 2025).

Key:
[1] = system: endogenous HP1α in KAP1^−/− ESCs; assay: immunofluorescence of endogenous HP1α; assay type: cell-based; conditions: KAP1^−/− mouse ESCs stably expressing the GFP-labeled construct, anti-HP1α antibody, DAPI
Description: The constructs coding for GFP-KAP1RF and the P486A/V488A/L490A mutant were transfected into 1 ×10^5 KAP1^−/− mouse ESCs using Lipofectamine 3000 (Invitrogen). Forty-eight hours post-transfection, cells were trypsinized and plated at a colony density in selection medium containing 10 μg/ml blasticidin (Thermo Fisher Sci) for one week. The selection process was repeated once to establish stable GFP-KAP1 expressing cell lines.
For immunostaining, mouse ESCs were cultured on Geltrex-coated coverslips (Life Technologies) in DMEM supplemented with 16% fetal bovine serum, 0.1 mM β-mercaptoethanol (Invitrogen), 2 mM L-glutamine, 1× MEM non-essential amino acids, 100 U/ml penicillin, 100 µg/ml streptomycin (PAA), 2i (1 μM PD032591 and 3 μM CHIR99021 (Axon Medchem, Netherlands) and 1000 U/ml recombinant LIF (Millipore). Coverslips were rinsed twice with PBS (pH 7.4; 140 mM NaCl, 2.7 mM KCl, 6.5 mM Na2HPO4, 1.5 mM KH2PO4), followed by fixation with 3.7% formaldehyde (Sigma) for 10 min. Fixed cells were washed three times (10 min each) with PBST (PBS + 0.01% Tween-20), permeabilized in 0.5% Triton X-100 for 10 min, and washed twice (10 min each) with PBST. Primary and secondary antibodies were prepared in blocking solution (PBST + 3% BSA). […]

[2] = system: DNA-induced HP1α phase separated droplets; assay: in vitro droplet assay; conditions: 50 µM HP1α, 0.18 µM 601 DNA
Excerpt: For droplet assays, cDNA of full-length HP1α was cloned into a pET28 expression vector. His-tag fusion HP1α was expressed in E. coli and purified as in ref. [51]. cDNA of the KAP1FR fragment (aa 114–834) was cloned into a pCAG-GFP expression vector, and the P486A/V488A/L490A mutant of GFP-KAP1FR was generated using overlap extension PCR. Purification of GFP-KAP1FR proteins was described in ref. [52].
For the droplet assay, Widom 601 DNA was amplified by PCR using a plasmid coding for 12× 601 DNA with primers as follows: 601 DNA_F: […] and 601 DNA_R: TGCACAGGATGTATATATCTGACAC. HP1α was concentrated to ~10 µg/µl using Amicon concentrators. The buffer changes for both HP1α and GFP-KAP1FR solutions were carried out using Zeba™ Spin Desalting Columns with a buffer containing 20 mM HEPES at pH 7.2, 75 mM KCl, and 1 mM DTT. For visualization of His-tagged-HP1α within the droplets, 500 ng of protein was labeled with the 647 N fluorescent label using the Monolith NT™ Protein Labeling Kit RED-NHS from Nano Temper. To form HP1α droplets, 50 µM of HP1α was incubated with 0.18 µM of 601 DNA for 3 min and dropped into ibidi chamber (µ-Slide 18 Well). Subsequently, 50 ng of the labeled HP1α and 100 ng of GFP-KAP1FR (wild type or mutant) were added into HP1α/DNA droplets. The images of the droplets were collected using a Nikon TiE microscope equipped with a Yokogawa CSU-W1 spinning-disk confocal unit (50 μm pinhole size), an Andor Borealis illumination unit, Andor ALC600 laser beam combiner (405 nm/488 nm/561 nm/640 nm), Andor IXON 888 Ultra EMCCD camera, and a Nikon 100×/1.45 NA oil immersion objective. The size and intensity of HP1α phase-separated droplets were analyzed using ImageJ.

B1: GFP-KAP1FR-PVLmut: P486A/V488A/L490A mutant of GFP-KAP1FR impaired in HP1α binding (protein)
chain: VVDCPVCKQQCFSKDIVENYFMRDSGSKAATDAQDANQCCTSCEDNAPATSYCVECSEPLCETCVEAHQRVKYTKDHTVRSTGPAKSRDGERTVYCNVHKHEPLVLFCESCDTLTCRDCQLNAHKDHQYQFLEDAVRNQRKLLASLVKRLGDKHATLQKSTKEVRSSIRQVSDVQKRVQVDVKMAILQIMKELNKRGRVLVNDAQKVTEGQQERLERQHWTMTKIQKHQEHILRFASWALESDNNTALLLSKKLIYFQLHRALKMIVDPVEPHGEMKFQWDLNAWTKSAEAFGKIVAERPGTNSTGPAPMAPPRAPGPLSKQGSGSSQPMEVQEGYGFGSGDDPYSSAEPHVSGVKRSRSGEGEVSGLMRKVARASAERLDLDLTADSQPPVFKVFPGSTTEDYNLIVIERGAAAAATGQPGTAPAGTPGAPPLAGMAIVKEEETEAAIGAPPTATEGPETKPVLMALAEGPGAEGPRLASPSGSTSSGLEVVAPEGTSAPGGGPGTLDDSATICRVCQKPGDLVMCNQCEFCFHLDCHLPALQDVPGEEWSCSLCHVLPDLKEEDGSLSLDGADSTGVVAKLSPANQRKCERVLLALFCHEPCRPLHQLATDSTFSLDQPGGTLDLTLIRARLQEKLSPPYSSPQEFAQDVGRMFKQFNKLTEDKADVQSIIGLQRFFETRMNEAFGDTKFSAVLVEPPPMSLPGAGLSSQELSGGPGDG
modifications: left off: GFP, end not stated, kept
In the case of B1, the “distribution of endogenous HP1α (puncta)” value [1] is reported as “more dispersed and formed smaller and fewer puncta”, the “sequestration of 647N labeled HP1α into droplets” value ([2]; 20 mM HEPES pH 7.2, 75 mM KCl, 1 mM DTT, 100 ng GFP-KAP1FR, 50 ng labeled HP1α) is reported as “unable to sequester 647N labeled HP1α into the condensed phase” and the “localization of GFP-KAP1FR in droplets” value ([2]; confocal microscopy) is reported as “concentrated at the periphery of the droplets”.
